{
  "source": "patent US20210171654A1",
  "about": "(FORTY SEVEN, published 2021)",
  "binders": {"B1": {"name": "1H9 (parental mouse anti-human SIRPa monoclonal antibody) (antibody, V domains shown)", "VH": "QVQLQQPGAERVKPGASVKMSCKASGYTFTSYWITWVKQRPGQGLEWIGDIYPGSGSTNHIEKFKSKATLTVDTSSNTAYMQLSRLTSEDSAVYYCATGYGSSYGYFDYWGQGTTLTVSS", "VL": "DIQMTQSPASLSASVGETVTITCRASENIYSYLAWYQQKQGKSPQLLVYTAKTLAEGVPSRFSGSGSGTQFSLKINSLQPEDFGNYYCQHQYGPPFTFGSGTRLVIK", "notes": "Hybridoma-derived mouse antibody; also called mouse 1H9"}, "B2": {"name": "Humanized 1H9 (antibody, human IgG1, kappa, N297A, V domains shown)", "VH": "QVQLVQSGAEVKKPGASVKVSCKASGYTFTSYWITWVKQAPGQGLEWIGDIYPGSGSTNHIEKFKSKATLTVDTSISTAYMELSRLRSDDTAVYYCATGYGSSYGYFDYWGQGTLVTVSS", "VL": "DIQMTQSPSSLSASVGDRVTITCRASENIYSYLAWYQQKPGKAPKLLIYTAKTLAEGVPSRFSGSGSGTDFTLTISSLQPEDFATYYCQHQYGPPFTFGQGTKLEIKR", "notes": "also called Hu1H9-G1; humanized 1H9-G1"}, "B3": {"name": "3C2 (parental mouse anti-human SIRPa monoclonal antibody) (antibody, V domains shown)", "VH": "QVQLQQPGAELVRPGSSVKLSCKASGYTFTSYWMHWVKQRPIQGLEWIGNIDPSDSDTHYNQKFKDKATLTVDKSSSTAYMQLSSLTSEDSAVYYCARGYSKYYAMDYWGQGTSVTVSS", "VL": "DVLMTQTPLSLSVSLGDQASISCRSSQSIVHSYGNTYLEWYLQKPGQSPKLLIYKVSNRFSGVPDRFSGSGSGTDFTLKISRVEAEDLGVYYCFQGSHVPYTFGGGTKLEIK", "notes": "Hybridoma-derived mouse antibody; also called mouse 3C2"}},
  "key": {"[1]": {"biological_target": "T1, human SIRPG-His fusion protein (human, UniProt Q9P1W8-2 29-327, limits assumed)", "T1 construct": "also called SIRP gamma; not shown: His tag", "T1 sequence (Q9P1W8 62-360 limits assumed)": "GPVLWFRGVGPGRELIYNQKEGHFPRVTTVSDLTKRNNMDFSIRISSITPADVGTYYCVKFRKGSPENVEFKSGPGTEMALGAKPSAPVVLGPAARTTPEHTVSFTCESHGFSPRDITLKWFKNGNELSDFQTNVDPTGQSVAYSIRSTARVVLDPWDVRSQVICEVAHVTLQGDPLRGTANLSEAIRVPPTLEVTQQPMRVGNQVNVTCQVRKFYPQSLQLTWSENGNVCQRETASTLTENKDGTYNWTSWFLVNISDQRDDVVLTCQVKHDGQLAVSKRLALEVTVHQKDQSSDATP", "experiment": "ELISA, binding to human SIRPG-His fusion protein"}, "[2]": {"biological_target": "T2, human SIRP-alpha variant 2 (V2) on monocytes and macrophages of V2 homozygous donors (human, UniProt Q5TFQ8 30-145)", "T2 construct": "the whole native protein stood on the cells; The definitions name GenBank CAA71403.1 for the V2 form (residues 30-504 mature); also called SIRPa V2", "T2 sequence (Q5TFQ8 other isoform, or with tags, fused parts or gaps mutant)": "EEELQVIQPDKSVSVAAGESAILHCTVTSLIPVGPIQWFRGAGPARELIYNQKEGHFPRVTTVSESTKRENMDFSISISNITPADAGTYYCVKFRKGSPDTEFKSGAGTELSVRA", "experiment": "flow cytometry on monocytes; blocking of AF488-conjugated human CD47-Fc binding", "description": "(§1) Blocking human CD47 binding on monocytes isolated from human donors. Human peripheral blood mononuclear cells (PBMCs) were isolated from human blood using Ficoll. 5×10⁵ cells were incubated with 1 ug/ml of AF488-conjugated human CD47-Fc fusion protein in the absence or presence of increasing concentrations of hHu1H9-G1. Binding of CD47 on the cells was measured and analyzed by flow cytometry."}, "[3]": {"biological_target": "T3, human SIRP-alpha V1/V5 (heterozygous) on monocytes and macrophages of V1/V5 donors (human)", "T3 construct": "Not a complex: the two allelic forms carried together by the cells of heterozygous donors", "T3 sequence (P78324 whole entry)": "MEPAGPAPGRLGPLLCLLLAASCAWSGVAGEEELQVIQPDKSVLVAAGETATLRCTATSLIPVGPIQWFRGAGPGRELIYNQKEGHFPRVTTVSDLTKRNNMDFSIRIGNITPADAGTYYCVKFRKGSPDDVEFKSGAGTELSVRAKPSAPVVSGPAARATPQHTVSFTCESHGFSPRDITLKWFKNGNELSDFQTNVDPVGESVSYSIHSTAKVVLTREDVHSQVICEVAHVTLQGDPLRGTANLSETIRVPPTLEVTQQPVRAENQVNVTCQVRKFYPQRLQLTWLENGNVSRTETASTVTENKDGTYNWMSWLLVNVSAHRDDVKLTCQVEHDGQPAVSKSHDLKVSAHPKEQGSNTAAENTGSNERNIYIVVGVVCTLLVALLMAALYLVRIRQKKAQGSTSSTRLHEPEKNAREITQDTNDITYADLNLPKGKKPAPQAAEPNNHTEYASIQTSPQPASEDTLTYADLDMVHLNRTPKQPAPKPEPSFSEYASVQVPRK", "experiment": "flow cytometry on monocytes; blocking of AF488-conjugated human CD47-Fc binding", "description": "as §1"}, "[4]": {"biological_target": "T4, human SIRP-alpha variant 1 (V1) on monocytes and macrophages of V1 homozygous donors (human, UniProt P78324 31-146)", "T4 construct": "the whole native protein stood on the cells; also called SIRPa V1", "T4 sequence (P78324 31-146, change not shown)": "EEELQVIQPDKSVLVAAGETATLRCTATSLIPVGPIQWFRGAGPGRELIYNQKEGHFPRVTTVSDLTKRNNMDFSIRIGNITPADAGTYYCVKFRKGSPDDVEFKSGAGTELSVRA", "experiment": "flow cytometry on monocytes; blocking of AF488-conjugated human CD47-Fc binding", "description": "as §1"}},
  "note": "Values joined by “and” are separate entries in the source; they are usually repeats but may differ in a detail not shown here. Equal entries are not always repeated.",
  "data": [
    {"binder": "B1", "values": [
      {"measurement": "binding result", "setting": "[1]", "result": "no binding (tested: about 3000 ng/mL)"}
    ]},
    {"binder": "B2", "values": [
      {"measurement": "IC50 (read off the curve)", "setting": "[2]", "result": "~20", "unit": "µg/mL"},
      {"measurement": "IC50 (read off the curve)", "setting": "[3]", "result": "~3", "unit": "µg/mL"},
      {"measurement": "IC50 (read off the curve)", "setting": "[4]", "result": "~8 µg/mL and ~4 µg/mL"}
    ]},
    {"binder": "B3", "values": [
      {"measurement": "binding result", "setting": "[1]", "result": "no binding (tested: about 3000 ng/mL)"}
    ]}
  ]
}
